Reference: article PMC6778137, “The midbody interactome reveals unexpected roles for PP1 phosphatases in cytokinesis” (Nature Communications, 2019)
Positions count from the first letter of the chain named.

B1: GST::MKLP1_(620–858) (wild type) (domain or fragment, UniProt Q02241-2 620-856, looked up)
chain: ETTMKWEKECERRVAAKQLEMQNKLWVKDEKLKQLKAIVTEPKTEKPERPSRERDREKVTQRSVSPSPVPLLFQPDQNAPPIRLRHRRSRSAGDRWVDHKPASNMQTETVMQPHVPHAITVSVANEKALAKCEKYMLTHQELASDGEIETKLIKGDIYKTRGGGQSVQFTDIETLKQESPNGSRKRRSSTVAPAQPDGAESEWTDVETRCSVAVEMRAGSQLGPGYQHHAQPKRKKP
notes: Cloned into pDEST15; source: E. coli, purified (Glutathione Sepharose 4B), kept on beads; not shown: GST, N-terminal, kept
B2: GST::MKLP1_(620–858) AQA mutant (domain or fragment, UniProt Q02241-2 620-856, looked up)
chain: B1 chain with V167A, F169A
notes: Cloned into pDEST15; also called AQA MKLP1; source: E. coli, purified (Glutathione Sepharose 4B), kept on beads; not shown: GST, N-terminal, kept

Biological target: T1, MBP::PP1β (UniProt P62140 1-327)
T1 construct: PP1β; Expressed from a derivative of plasmid pMH919 carrying MBP instead of 6His; also called MBP-tagged PP1β; source: S. cerevisiae (strain MGY960), purified on amylose resin, eluted with 20 mM maltose
T1 sequence (P62140 whole entry): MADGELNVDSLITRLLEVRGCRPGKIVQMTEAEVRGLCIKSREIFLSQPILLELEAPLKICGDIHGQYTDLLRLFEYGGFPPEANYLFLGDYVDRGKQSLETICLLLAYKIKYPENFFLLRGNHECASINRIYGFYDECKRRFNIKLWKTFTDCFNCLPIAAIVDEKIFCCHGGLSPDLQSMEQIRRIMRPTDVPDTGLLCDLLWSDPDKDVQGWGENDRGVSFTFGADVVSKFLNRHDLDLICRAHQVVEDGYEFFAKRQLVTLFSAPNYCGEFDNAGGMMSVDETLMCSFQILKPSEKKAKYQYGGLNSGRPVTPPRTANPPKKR
Assay: pull-down; GST pull-down: GST::MKLP1_(620–858) proteins on Glutathione Sepharose beads mixed with MBP::PP1β purified from yeast; NET-N+ buffer (50 mM Tris-HCl pH 7.4, 150 mM NaCl, 5 mM EDTA, 0.2% NP-40), 60 min at 4 °C, washes with 250 mM NaCl; western blot
Conditions: both partners purified

binding result	Binder
binds	B1
binds	B2
